Changes are numbered by the printed parent chain.
Experiments:
[1] = molecular target: multiple related peptides of hepacivirus C NS4A (animal virus peptide array); test: animal virus peptide array, 2.5 ug/ml
[2] = molecular target: T1, bovine serum albumin (Fraction V, Fisher BP1600) (bovine, UniProt P02769 25-607); test: polyreactivity ELISA
T1 construct: also called BSA

[3] = molecular target: integral membrane protein 2B (ITM2B) (human, UniProt Q9Y287 1-266); test: HuProt v4.0 human proteome array, 1 ug/ml
integral membrane protein 2B (ITM2B), sequence (Q9Y287 whole entry): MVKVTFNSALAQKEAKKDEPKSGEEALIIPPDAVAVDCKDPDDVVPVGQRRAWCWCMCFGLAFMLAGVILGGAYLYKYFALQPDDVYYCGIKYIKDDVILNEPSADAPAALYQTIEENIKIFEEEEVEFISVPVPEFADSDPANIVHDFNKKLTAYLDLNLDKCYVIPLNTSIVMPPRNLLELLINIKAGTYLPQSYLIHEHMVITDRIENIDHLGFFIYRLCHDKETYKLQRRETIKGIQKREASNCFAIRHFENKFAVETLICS

[4] = molecular target: KD peptide (NS4A peptide 2), BSA conjugated; test: ELISA

T1 sequence (P02769 25-607 limits assumed): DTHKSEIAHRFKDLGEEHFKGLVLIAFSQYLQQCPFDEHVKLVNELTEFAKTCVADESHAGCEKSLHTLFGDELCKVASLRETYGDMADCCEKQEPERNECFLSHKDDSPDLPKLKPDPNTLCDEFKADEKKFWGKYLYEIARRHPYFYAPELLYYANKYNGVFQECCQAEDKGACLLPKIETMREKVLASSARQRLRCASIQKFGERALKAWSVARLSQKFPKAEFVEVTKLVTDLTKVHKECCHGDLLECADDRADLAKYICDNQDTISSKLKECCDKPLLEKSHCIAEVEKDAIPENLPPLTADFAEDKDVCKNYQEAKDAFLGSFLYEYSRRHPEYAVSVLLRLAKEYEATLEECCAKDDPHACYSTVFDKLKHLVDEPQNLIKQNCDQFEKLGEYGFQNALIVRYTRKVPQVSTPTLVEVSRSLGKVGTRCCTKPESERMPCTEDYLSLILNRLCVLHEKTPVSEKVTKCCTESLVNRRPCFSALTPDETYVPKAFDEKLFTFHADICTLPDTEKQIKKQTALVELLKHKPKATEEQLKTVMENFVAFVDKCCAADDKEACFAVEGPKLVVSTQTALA

B1: KD4-2H4 (rabbit version) (antibody, V domains shown)
VH: EVQLVESGGGLVQPGGSLRLSCAASGFTFSSYWMYWVRQAPGKGLVWVSRINSDGSTTNYADSVKGRFTISRDNAKNTLYLQMNSLRAEDTAVYFCARYAHLGIGWYFDLWGRGTLVTVSS
VL: QSALTQPRSVSGSPGQSVTISCTGTSSDVGGYNYVSWYQQHPGKAPKLMIYDVSKRPSGVPDRFSGSKSGNTASLTISGLQAEDEADYYCCSYAGSYTLLFGGGTKLTVL
notes: also called Rabbit KD4-2H4
With B1 the spot intensity (fluorescence units) (fluorescence units) [1] was > 200 and the binding result [2] was “no binding (tested: 10, 1, and 0.1 ug/ml)”.

B2: KD4-2H4 (human version) (antibody, V domains shown)
VH: B1 VH
VL: B1 VL
notes: also called human KD4-2H4
B2: binds [3].

B3: KD6-2B2 (antibody, V domains shown)
VH: EVQLVESGGGVAQPGTSLRLSCEASGFTFRDYAMRWVRQAPGKGLEWVAFIWNDGSKKYYTDSVRGRFTISRDNSKNMLYLQMDSLRAEDTALYYCARKMSEDDAFDLWGQGTMVTV
VL: DIQMTQSPSTLSASAGDRVTITCRASQSVSKYLAWYQQKPGKAPRLLIYKASSLQSGVPSRFSGSGSGTEFTLTISSLQPDDFATYYCQHYNTYPSWTFGQGTKVEIK
notes: also called rabbit KD6-2B2; KD36-2B32
B3: no binding (tested: 10, 1, and 0.1 ug/ml) [2].

B4: KD6-1A10 (antibody, V domains shown)
VH: VQLVESGGGVVQPGRSLRLSCAASGFSFSNYFMHWVRHVPGKGLEWLATIWYDGSDKYYVDSVKGRFTISRDNSKNTLYLQMGSLRAEDTAMYYCAKGRQRGYYYDMGGYYVFDSWGQGTLVTVSS
VL: QSVLTQPPSASGTPGQGVTISCSGSRSNIGSNTVNWYRQFPGTAPKLLIYKNNQRPSGVPDRFSGSKPGTSAYLAITGLQSDDQADYYCAAWDDSLKGVVFGGGTKLTVL
B4: no binding (tested: 10, 1, and 0.1 ug/ml) [2].

B5: KD8-1B10 (antibody, V domains shown)
VH: EVQLVESGGGLVQPGGSLRLSCAASGFTFSDHYMDWVRQVPRKGLEWVGRARNKANSYTTEYAASVKGRFTISRDDSKNSLYLQMNSLKSEDTAVYYCARFLLIADAFDIWGQGTMVTV
VL: DIQMTQSPSSLSASLGDRVTITCRASQGIRHDLGWYQQKPGKAPKLLIYGASTLQTGVPSRFSGSGSGTDFTLTISSLQPEDFATYYCLQKYNYPLTFGGGTKVEIK
B5: no binding (tested: 10, 1, and 0.1 ug/ml) [2].

B6: KD8-1D4 (antibody, V domains shown)
VH: B5 VH with H32Y, V40A, R42G, A51T, S90T, I104V
VL: B5 VL with L15V, H31N, T53S, T56S, F83I, K91E, N93T
B6: no binding (tested: 10, 1, and 0.1 ug/ml) [2].

B7: KD9-1B5 (antibody, V domains shown)
VH: QVQLQESGPGLVKPSETLSLTCTVSGGSINSYYWSWIRQPPGKGLEWIGYIYYSGSTNYNPSLKSRVTISVDTSKNQFSLRLSSVTAADTAVYYCARHPTAGTSYGMDVWGQGTTVTV
VL: QSALTQPASESGSPGQSITISCTGTTSDVGSYNLVSWYQQHPGKAPKLMIYEGTKRPSGVSNRFSGSKSGNTASLTISGLQPEDEADYYCCSYAGTTTYVFGTGTKVTVL
In the case of B7, the OD450 (KD peptide minus scrambled peptide) [4] is reported as < 0.04 OD.

From patent US20220119502A1 (ANN AND ROBERT H LURIE CHILDREN S HOSPITAL OF CHICAGO, published 2022)
